Test results reported in patent publication CN114031685A (INST MILITARY MEDICINE ACADEMY MILITARY SCIENCES PLA, dated 2022).

Key:
SARS-CoV-2 NTD蛋白 = molecular target: T1, SARS-CoV-2 NTD蛋白 (SARS-CoV-2, UniProt P0DTC2 14-303); assay: ELISA, antigen coated at 2 μg/mL
T1 construct: domain: NTD

SARS-CoV-2 WT S2蛋白 = molecular target: T2, SARS-CoV-2 WT S2蛋白 (SARS-CoV-2, UniProt P0DTC2 686-1213); assay: ELISA, antigen coated at 2 μg/mL
T2 construct: domain: S2

[1] = molecular target: 新冠病毒野生型 S蛋白 (on pseudovirus / live virus) (SARS-CoV-2, UniProt P0DTC2 14-1273); assay: cell-based or functional assay

B1: 抗SARS-CoV-2全人源单克隆抗体ZW2G10 (antibody, V domains shown)
VH: EVQLVESGGGLVQPGRSLRLSCAASGFTFDDYAMHWVRQAPGKGLEWVSGITWNSGTIGYADSVKGRFIISRDNAKNSLHLQMNSLRVEDTALYYCAKDNSDYSGYYWELENYGMDVWGQGTTVTVSS
VL: QSVLTQPPSVSGAPGQRVTISCTGSSSNIGAGYDVHWYQQLPGTAPKLLIYDNNNRPSGVPDRFSGSKSGTSASLAITGLQAEDEADYYCQSFDSSLSGVVFGGGTRLTVLR
notes: also called 单抗ZW2G10
SARS-CoV-2 NTD蛋白
  binding result: no binding
SARS-CoV-2 WT S2蛋白
  binding result: no binding
[1]
  假病毒中和 EC50: 0.0142 µg/mL
  真病毒中和 EC50 (Vero E6): 1.08 µg/mL
